Paper PMC7527728, “CPSF6-Dependent Targeting of Speckle-Associated Domains Distinguishes Primate from Nonprimate Lentiviral Integration” (mBio, 2020)
Primed or numbered codes have the meaning given here. Ends that are not written are not given here. FITC′ = fluorescein isothiocyanate label; Ahx = NCCCCCC(=O)O

B1: FIV capsid N-terminal domain (NTD) protein (domain or fragment)
chain: PIQTVNGVPQYVALDPKMVSIFMEKAREGLGGEEVQLWFTAFSANLTPTDMATLIMAAPGCAADKEILDESLKQLTAEYDRTHPPDAPRPLPYFTAAEIMGIGLTQEQQAEARFAPARMQCRAWYLEALGKLAAIKA
B2: BIV capsid N-terminal domain (NTD) protein (domain or fragment)
chain: PAITTQDGTPRFDPDLMKQLKIWSDATERNGVDLHAVNILGVITANLVQEEIKLLLNSTPKWRLDVQLIESKVREKENAHRTWKQHHPEAPKTDEIIGKGLSSAEQATLISVECRETFRQWVLQAAMEVAQAKHATPG
B3: EIAV capsid N-terminal domain (NTD) protein (domain or fragment)
chain: PIMIDGAGNRNFRPLTPRGYTTWVNTIQTNGLLNEASQNLFGILSVDCTSEEMNAFLDVVPGQAGQKQILLDAIDKIADDWDNRHPLPNAPLVAPPQGPIPMTARFIRGLGVPRERQMEPAFDQFRQTYRQWIIEAMSEGIKVMIG
B4: MLV capsid N-terminal domain (NTD) protein (domain or fragment)
chain: PLRAGGNGQLQYWPFSSSDLYNWKNNNPSFSEDPGKLTALIESVLITHQPTWDDCQQLLGTLLTGEEKQRVLLEARKAVRGDDGRPTQLPNEVDAAFPLERPDWDYTTQAGRNHLVHYRQLLLAGLQNAGRS

Experiments:
Assay in all cases: fluorescence polarisation; 150 nM FITC-Ahx-labelled peptide mixed with increasing capsid NTD protein (2 μM to 2 mM) in 50 mM Tris-HCl pH 8.0, 50 mM NaCl, 384-well plates; one-site specific binding model; the EIAV constants are called apparent
Conditions in all cases: both partners purified
[1] = target: T1, CPSF6_(276–290/F284A) peptide (human, F284A (stands in the printed letters))
T1 construct: cleavage and polyadenylation specificity factor 6 (CPSF6), human, residues 276-290 counted on the 551-residue isoform CPSF6[551], with F284A; source: synthetic peptide (GenScript)

CPSF6_(276–290) peptide [2] = target: T2, CPSF6_(276–290) peptide (human, N-terminal fluorescein isothiocyanate (FITC)-Ahx)
T2 construct: also called CPSF6 peptide; fluorescently labeled CPSF6_(276–290) peptide; source: synthetic peptide (GenScript)

CPSF6_(276–290) peptide [3] = target: T2, CPSF6_(276–290) peptide; remark: listed apart in the source

Row | Binder | Kd [1] | Kd (CPSF6_(276–290) peptide [2]) | Kd (CPSF6_(276–290) peptide [3])
1 | B1 | > 7000 µM | > 4000 µM | > 2000 µM
2 | B2 | > 3000 µM | > 5000 µM | > 2000 µM
3 | B3 | 466 µM | – | –
4 | B4 | – | > 5000 µM | > 2000 µM
